T1: human MSR1 extracellular domain expressed with a N-terminal nonahistidine tag (His9-hMSR1); R&D Systems, Cat … (human, UniProt P21757 77-451)
T1 construct: extracellular domain; Bought reagent; also called His-hMSR1; 9xHis-hMSR1
T1 sequence: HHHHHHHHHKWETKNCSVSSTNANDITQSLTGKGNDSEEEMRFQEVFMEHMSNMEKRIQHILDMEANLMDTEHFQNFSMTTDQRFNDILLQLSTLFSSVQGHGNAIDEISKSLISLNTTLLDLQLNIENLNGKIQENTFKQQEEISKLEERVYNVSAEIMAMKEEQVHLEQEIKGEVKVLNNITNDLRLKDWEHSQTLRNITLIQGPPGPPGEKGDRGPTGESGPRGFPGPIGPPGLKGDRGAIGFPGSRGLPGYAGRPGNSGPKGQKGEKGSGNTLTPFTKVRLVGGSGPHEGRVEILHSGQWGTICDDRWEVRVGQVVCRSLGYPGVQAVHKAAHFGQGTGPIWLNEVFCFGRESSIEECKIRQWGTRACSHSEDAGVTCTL


Molecular target: T1, human MSR1 extracellular domain …
Experiment: SPR Biacore T200, 25 C, antibody captured by anti-human Fc, His9-hMSR1 injected;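 also: running buffer HBS-ET pH 7.4, rates from sensorgrams fitted to a 1:1 model including mass transport limitation, KD and half-life derived from the kinetic constants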
Description: All binding studies were performed in 10 mM HEPES, 300 mM NaCl, 3 mM EDTA, and 0.05% v/v Surfactant Tween-20, pH 7.4 (HBS-ET) running buffer at 25° C.
The association rate (kₐ) and dissociation rate (kd) were determined by fitting the real-time binding sensorgrams to a 1:1 binding model with mass transport limitation using Scrubber 2.0c curve-fitting software. Binding dissociation equilibrium constant (KD) and dissociative half-life (t½) were calculated from the kinetic rates as:

| Binder | Kd [nM] | koff [s⁻¹] | kon [M⁻¹ s⁻¹] | t½ [min] |
| --- | --- | --- | --- | --- |
| H1H27729P-N297Q (antibody, human IgG1, V domains shown, human IgG1 Fc with N297Q (EU)) VH: QVQLVESGGGLVKPGGSLRLSCAASGFIFSDYYMSWIRQAPGKGLEWVSYISSSGTTIYGDSVKGRFTMSRDNAKNSLYLQMNSLRAEDTAVYYCARNYALFDYWGQGTLVTVSS VL: DIQMTQSPSSLSASVGDRVTITCQASQDISKYLNWYQQKPGKAPKLLIYYTSNLETGVPSRFSGSGSGTDFTFTISSLQPEDIATYYCHQSDYLPFTFGPGTKVDIKR | 8.67 | 0.000906 | 105000 | 12.8 |
| H1H27729P-N297Q-LP1 (antibody, human IgG1, V domains shown, LXR agonist linker-payload LP1 clicked to azido-PEG3-amine on Q295 and Q297 (EU) of the heavy chain constant region, antibody-drug conjugate; human IgG1 Fc with N297Q (EU); also called H1H27729P-LP1) VH: QVQLVESGGGLVKPGGSLRLSCAASGFIFSDYYMSWIRQAPGKGLEWVSYISSSGTTIYGDSVKGRFTMSRDNAKNSLYLQMNSLRAEDTAVYYCARNYALFDYWGQGTLVTVSS VL: DIQMTQSPSSLSASVGDRVTITCQASQDISKYLNWYQQKPGKAPKLLIYYTSNLETGVPSRFSGSGSGTDFTFTISSLQPEDIATYYCHQSDYLPFTFGPGTKVDIKR | 13.1 | 0.000718 | 54700 | 16.1 |
| H1H27751P-N297Q (antibody, human IgG1, V domains shown, human IgG1 Fc with N297Q (EU)) VH: EVQLVESGGGLVQPGGSLRLSCAASGFTFSNYAMHWVRQAPGKGLEYVSAISSNGGSTYYADSVKGRITISRDNSKNTLYLQMGSLRAEDMAVYYCARGRPYYYYFGMDVWGQGTTVTVSS VL: not shown | 0.833 | 0.000175 | 210000 | 66.1 |
| H1H27751P-N297Q-LP1 (antibody, human IgG1, V domains shown, LXR agonist linker-payload LP1 clicked to azido-PEG3-amine on Q295 and Q297 (EU) of the heavy chain constant region, antibody-drug conjugate; human IgG1 Fc with N297Q (EU)) VH: EVQLVESGGGLVQPGGSLRLSCAASGFTFSNYAMHWVRQAPGKGLEYVSAISSNGGSTYYADSVKGRITISRDNSKNTLYLQMGSLRAEDMAVYYCARGRPYYYYFGMDVWGQGTTVTVSS VL: not shown | 0.664 | 0.000152 | 229000 | 76.1 |
| H1H27734P-N297Q (antibody, human IgG1, V domains shown, human IgG1 Fc with N297Q (EU)) VH: EVQLVESRGGLVQPGGSLRLSCAASGFTFSSYAMSWVRQAPGKGLEWVSAISGSGGSTFYADSVKGRFTISRDNSKNTVYLQMNSLRAEDTAVYYCAKALVLRFLEWLGDYWGQGTLVTVSS VL: DIQMTQSPSTLSASVGDRVTITCRASQSISSWLAWFQQKPGKAPKLLIYKASSLESGVPSRFSGSGSGTEFTLTISSLQPDDFATYYCQQYKSYWTFGQGTKVEIKR | 7.72 | 0.000596 | 77200 | 19.4 |
| H1H27734P-N297Q-LP1 (antibody, human IgG1, V domains shown, LXR agonist linker-payload LP1 clicked to azido-PEG3-amine on Q295 and Q297 (EU) of the heavy chain constant region, antibody-drug conjugate; human IgG1 Fc with N297Q (EU); also called H1H27734P-LP1) VH: EVQLVESRGGLVQPGGSLRLSCAASGFTFSSYAMSWVRQAPGKGLEWVSAISGSGGSTFYADSVKGRFTISRDNSKNTVYLQMNSLRAEDTAVYYCAKALVLRFLEWLGDYWGQGTLVTVSS VL: DIQMTQSPSTLSASVGDRVTITCRASQSISSWLAWFQQKPGKAPKLLIYKASSLESGVPSRFSGSGSGTEFTLTISSLQPDDFATYYCQQYKSYWTFGQGTKVEIKR | 6.49 | 0.000449 | 69300 | 25.7 |
| H1H27761P-N297Q (antibody, human IgG1, V domains shown, human IgG1 Fc with N297Q (EU); also called H1H27761P2-N297Q) VH: EVQLVESGGDLVQPGGSLRLSCSASGFTFNIYAMSWVRQAPGKGLEWVSGISGSGGSTYYADSVKGRFTISRDNSKNTLYFQMNSLRVEDTAVYYCAKKISSSSYYYYAMDVWGQGTTVTVSS VL: not shown | 0.609 | 0.000362 | 595000 | 31.9 |
| H1H27761P-N297Q-LP1 (antibody, human IgG1, V domains shown, LXR agonist linker-payload LP1 clicked to azido-PEG3-amine on Q295 and Q297 (EU) of the heavy chain constant region, antibody-drug conjugate; human IgG1 Fc with N297Q (EU)) VH: EVQLVESGGDLVQPGGSLRLSCSASGFTFNIYAMSWVRQAPGKGLEWVSGISGSGGSTYYADSVKGRFTISRDNSKNTLYFQMNSLRVEDTAVYYCAKKISSSSYYYYAMDVWGQGTTVTVSS VL: not shown | 2.02 | 0.000511 | 253000 | 22.6 |
| H1H27756P-N297Q (antibody, human IgG1, V domains shown, human IgG1 Fc with N297Q (EU)) VH: QVQLVESGGGVVQPGRSLRLSCAASGFTFSNYDMHWVRQAPGKGLEWMAVISYDGINKYYADSVKGRFTISRDNSKNTLYLQMNSLRAEDTAVYYCAKGTYSWYFDLWGRGTLVTVSS VL: not shown | 1.65 |  |  | 97.4 |
| H1H27756P-N297Q-LP1 (antibody, human IgG1, V domains shown, LXR agonist linker-payload LP1 clicked to azido-PEG3-amine on Q295 and Q297 (EU) of the heavy chain constant region, antibody-drug conjugate; human IgG1 Fc with N297Q (EU); also called H1H27756P-LP1) VH: QVQLVESGGGVVQPGRSLRLSCAASGFTFSNYDMHWVRQAPGKGLEWMAVISYDGINKYYADSVKGRFTISRDNSKNTLYLQMNSLRAEDTAVYYCAKGTYSWYFDLWGRGTLVTVSS VL: not shown | 1.76 | 0.00011 | 62700 | 105 |
| H1H27749P-N297Q-LP1 (antibody, human IgG1, V domains shown, LXR agonist linker-payload LP1 clicked to azido-PEG3-amine on Q295 and Q297 (EU) of the heavy chain constant region, antibody-drug conjugate; human IgG1 Fc with N297Q (EU); also called H1H27749P-LP1) VH: QVQLQESGPGLVKPSETLSLTCTVSDGSISSYYWSWIRQPPGRGLEWIGFIYYSGSTSYNPSLKSRVTISVDTSMSQFSLKLRSVTAADTAVYYCARGSPFDYWGPGTLVTVSS VL: EIVLTQSPGTLSLSPGERATLSCRASQSVSSSYLAWYQQRPGQAPSLLISGASRRATGIPDRFSGSGSGTDFTLTIRRLEPEDFAMYYCQQYGSSPPTFGGGTKVEIKR |  |  | 140000 |  |
| H1H27760P-N297Q (antibody, human IgG1, V domains shown, human IgG1 Fc with N297Q (EU); also called H1H27760P2-N297Q) VH: EVQLVESGGGLVQPGRSLRLSCAASGFTFDAYAMHWVRQAPGKGLEWVSGISWNSGSIGYADSVKGRFTISRDNAKNSLYLQMNSLREEDTALYYCAKDKILELYYYGMDVWGQGTTVTVSS VL: not shown | 1.66 |  |  | 30.2 |
| H1H27760P-N297Q-LP1 (antibody, human IgG1, V domains shown, LXR agonist linker-payload LP1 clicked to azido-PEG3-amine on Q295 and Q297 (EU) of the heavy chain constant region, antibody-drug conjugate; human IgG1 Fc with N297Q (EU)) VH: EVQLVESGGGLVQPGRSLRLSCAASGFTFDAYAMHWVRQAPGKGLEWVSGISWNSGSIGYADSVKGRFTISRDNAKNSLYLQMNSLREEDTALYYCAKDKILELYYYGMDVWGQGTTVTVSS VL: not shown | 1.67 | 0.000434 | 259000 | 26.6 |
| H1H27731P-N297Q (antibody, V domains shown, human IgG1 Fc with N297Q (EU)) VH: QLQLQESGPGLVKPSETLSLTCTVSGGSISRISYYWGWIRQPPGKGLEWIGSIYDSGSTYYNPSLKSRVTISIDTSKNQFSLKLSSVTAADTAVYYCVRYSSSSAFAFDYWGQGTLVTVSS VL: DIQMTQSPSSVSASVGDRVTITCRASQGISSWLAWYQQKPGKAPKLLIYAASSLQSGVPSRFSGSGSGTDFTLTISSLQPEDFATYYCQQANSFPFTFGPGTKVDIKR | ≤ 0.0855 | ≤ 1e-05 | 117000 | 1160 |
| H1H27747P-N297Q-LP1 (antibody, human IgG1, V domains shown, LXR agonist linker-payload LP1 clicked to azido-PEG3-amine on Q295 and Q297 (EU) of the heavy chain constant region, antibody-drug conjugate; human IgG1 Fc with N297Q (EU); also called H1H27747P-LP1) VH: QVQLVESGGAVVQPGRSLRLSCAASGFTFSYYGMHWVRQAPGKGLEWVAVISYDGSKKYYADSVKGRFTISRDNSKNTLYLQMNSLRAEDTAVYYCAKDLTVDFYYGMDVWGQGTTVTVSS VL: DIQMTQSPSSVSASVGDRVTITCRASQGISSWLAWYQQKPGKAPKLLIYATSSLQSGAPSRFSGSGSGTDFTLTISSLQPEDFATYFCQQANSFPYTFGQGTKLEIKR | 1.49 | 0.000203 | 136000 | 56.9 |
| H1H27739P-N297Q (antibody, human IgG1, V domains shown, human IgG1 Fc with N297Q (EU)) VH: EVQLVESGGGLVQPGGSLRLSCTASGFTFSSYAMSWVRQAPGKGLEWVSAISGTGSSTYFTDSVKGRFAISRDNSKNTLYLQMNSLRAEDTAVYYCAKDGEWLSTVTLFDYWGQGTLVTVSS VL: EIVMTQSPATLSVSPGERATLSCRASQSVSSNLAWYQQKPGQAPRLLIYGASTRATGIPARFSGSGSGTDFTLTISSLQSEDFALYYCQQYFIWPPHPTFGPGTKVDIKR | 4.68 | 0.000555 | 119000 | 20.8 |
| H1H27739P-N297Q-LP1 (antibody, human IgG1, V domains shown, LXR agonist linker-payload LP1 clicked to azido-PEG3-amine on Q295 and Q297 (EU) of the heavy chain constant region, antibody-drug conjugate; human IgG1 Fc with N297Q (EU); also called H1H27739P-LP1) VH: EVQLVESGGGLVQPGGSLRLSCTASGFTFSSYAMSWVRQAPGKGLEWVSAISGTGSSTYFTDSVKGRFAISRDNSKNTLYLQMNSLRAEDTAVYYCAKDGEWLSTVTLFDYWGQGTLVTVSS VL: EIVMTQSPATLSVSPGERATLSCRASQSVSSNLAWYQQKPGQAPRLLIYGASTRATGIPARFSGSGSGTDFTLTISSLQSEDFALYYCQQYFIWPPHPTFGPGTKVDIKR | 8.14 | 0.000722 | 88800 | 16 |
| H1H27759P-N297Q (antibody, human IgG1, V domains shown, human IgG1 Fc with N297Q (EU); also called H1H27759P2-N297Q) VH: EVQLVESGGGFVQPGGSLRLSCAASGFTFSSYAMSWVRQAPGKGLEWVSAISGTGSNTYYADSVKGRFTISRDNSKNTLYLQMNSLRAEDTAVYYCAKDRVTTVTYYFDYWGQGTLVTVSS VL: not shown | 4.23 | 0.000435 | 103000 | 26.6 |
| H1H27759P-N297Q-LP1 (antibody, human IgG1, V domains shown, LXR agonist linker-payload LP1 clicked to azido-PEG3-amine on Q295 and Q297 (EU) of the heavy chain constant region, antibody-drug conjugate; human IgG1 Fc with N297Q (EU)) VH: EVQLVESGGGFVQPGGSLRLSCAASGFTFSSYAMSWVRQAPGKGLEWVSAISGTGSNTYYADSVKGRFTISRDNSKNTLYLQMNSLRAEDTAVYYCAKDRVTTVTYYFDYWGQGTLVTVSS VL: not shown | 4.57 | 0.000595 | 130000 | 19.4 |
